B1: Mothers against decapentaplegic homolog 4 (Homo sapiens), Q13485 (parent)
chain: MDNMSITNTPTSNDACLSIVHSLMCHRQGGESETFAKRAIESLVKKLKEKKDELDSLITAITTNGAHPSKCVTIQRTLDGRLQVAGRKGFPHVIYARLWRWPDLHKNELKHVKYCQYAFDLKCDSVCVNPYHYERVVSPGIDLSGLTLQSNAPSSMMVKDEYVHDFEGQPSLSTEGHSIQTIQHPPSNRASTETYSTPALLAPSESNATSTANFPNIPVASTSQPASILGGSHSEGLLQIASGPQPGQQQNGFTGQPATYHHNSTTTWTGSRTAPYTPNLPHHQNGHLQHHPPMPPHPGHYWPVHNELAFQPPISNHPAPEYWCSIAYFEMDVQVGETFKVPSSCPIVTVDGYVDPSGGDRFCLGQLSNVHRTEAIERARLHIGKGVQLECKGEGDVWVRCLSDHAVFVQSYYLDREAGRAPGDAVHKIYPSAYIKVFDLRQCHRQMQQQAATAQAAAAAQAAAVAGNIPGPGSVGGIAPAISLSAAAGIGVDDLRRLCILRMSFVKGWGPDYPRQSIKETPCWIEIHLHRALQLLDEVLHTMPIADPQPLD
partner: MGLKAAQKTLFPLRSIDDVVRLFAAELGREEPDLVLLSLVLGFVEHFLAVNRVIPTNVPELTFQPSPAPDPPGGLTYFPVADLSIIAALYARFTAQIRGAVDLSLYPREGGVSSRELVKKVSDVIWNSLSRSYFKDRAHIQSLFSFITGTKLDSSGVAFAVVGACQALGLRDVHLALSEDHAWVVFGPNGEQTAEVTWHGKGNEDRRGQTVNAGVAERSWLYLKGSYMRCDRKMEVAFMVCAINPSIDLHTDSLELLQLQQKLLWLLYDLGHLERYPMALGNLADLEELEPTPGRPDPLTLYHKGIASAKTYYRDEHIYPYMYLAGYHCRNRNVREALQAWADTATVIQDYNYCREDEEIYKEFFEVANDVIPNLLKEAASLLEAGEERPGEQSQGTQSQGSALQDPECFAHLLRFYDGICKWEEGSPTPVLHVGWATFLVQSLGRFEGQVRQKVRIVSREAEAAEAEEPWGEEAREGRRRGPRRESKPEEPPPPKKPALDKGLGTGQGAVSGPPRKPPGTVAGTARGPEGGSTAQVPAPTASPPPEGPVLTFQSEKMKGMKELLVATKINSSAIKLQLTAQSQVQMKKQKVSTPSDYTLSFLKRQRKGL
B2: Mothers against decapentaplegic homolog 4 (Homo sapiens), Q13485 (parent)
chain: B1 chain
partner: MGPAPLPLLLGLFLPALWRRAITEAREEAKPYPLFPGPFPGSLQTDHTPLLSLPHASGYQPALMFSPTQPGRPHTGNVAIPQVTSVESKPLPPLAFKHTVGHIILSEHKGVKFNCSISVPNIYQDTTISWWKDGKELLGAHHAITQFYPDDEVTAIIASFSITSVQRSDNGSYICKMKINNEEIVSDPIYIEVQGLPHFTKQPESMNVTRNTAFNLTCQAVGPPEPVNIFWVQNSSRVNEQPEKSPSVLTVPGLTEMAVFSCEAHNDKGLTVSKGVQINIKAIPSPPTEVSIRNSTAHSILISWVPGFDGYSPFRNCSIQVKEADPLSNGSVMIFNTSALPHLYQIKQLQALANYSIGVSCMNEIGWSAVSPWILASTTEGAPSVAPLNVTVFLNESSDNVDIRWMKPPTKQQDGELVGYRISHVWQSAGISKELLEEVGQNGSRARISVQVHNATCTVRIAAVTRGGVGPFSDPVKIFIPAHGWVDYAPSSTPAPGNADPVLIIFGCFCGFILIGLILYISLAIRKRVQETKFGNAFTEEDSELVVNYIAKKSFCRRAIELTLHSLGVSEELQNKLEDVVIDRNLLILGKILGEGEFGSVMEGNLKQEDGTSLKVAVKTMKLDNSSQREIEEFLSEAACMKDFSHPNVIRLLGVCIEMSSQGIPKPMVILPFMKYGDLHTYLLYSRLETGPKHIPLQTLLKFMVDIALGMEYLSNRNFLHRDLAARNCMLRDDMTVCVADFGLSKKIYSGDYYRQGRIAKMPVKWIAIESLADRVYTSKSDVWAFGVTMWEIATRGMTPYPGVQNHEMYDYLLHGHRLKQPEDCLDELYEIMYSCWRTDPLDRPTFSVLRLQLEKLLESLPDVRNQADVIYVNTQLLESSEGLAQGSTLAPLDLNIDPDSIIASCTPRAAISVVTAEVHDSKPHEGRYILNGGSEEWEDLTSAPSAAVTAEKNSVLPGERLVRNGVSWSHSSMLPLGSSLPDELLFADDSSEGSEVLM
B3: Mothers against decapentaplegic homolog 4 (Homo sapiens), Q13485 (parent)
chain: B1 chain
partner: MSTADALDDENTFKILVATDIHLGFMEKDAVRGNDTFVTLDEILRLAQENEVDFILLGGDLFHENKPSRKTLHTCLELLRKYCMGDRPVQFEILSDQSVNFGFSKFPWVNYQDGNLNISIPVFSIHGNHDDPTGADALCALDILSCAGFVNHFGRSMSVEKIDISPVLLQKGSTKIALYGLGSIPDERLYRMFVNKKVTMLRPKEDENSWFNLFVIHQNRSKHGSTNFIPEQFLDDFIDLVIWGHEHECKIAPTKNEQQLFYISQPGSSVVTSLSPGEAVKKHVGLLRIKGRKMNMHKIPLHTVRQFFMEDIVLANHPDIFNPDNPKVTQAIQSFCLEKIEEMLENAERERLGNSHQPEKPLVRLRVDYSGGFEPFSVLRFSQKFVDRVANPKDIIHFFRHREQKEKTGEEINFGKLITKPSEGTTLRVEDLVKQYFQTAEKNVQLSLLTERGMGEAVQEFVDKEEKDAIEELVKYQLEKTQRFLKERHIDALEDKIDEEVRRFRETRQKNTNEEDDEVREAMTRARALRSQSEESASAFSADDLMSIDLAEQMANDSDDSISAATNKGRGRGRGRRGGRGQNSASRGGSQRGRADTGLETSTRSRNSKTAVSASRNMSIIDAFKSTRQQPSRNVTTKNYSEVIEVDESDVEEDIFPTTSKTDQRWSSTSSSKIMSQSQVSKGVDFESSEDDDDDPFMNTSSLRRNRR
B4: Mothers against decapentaplegic homolog 4 (Homo sapiens), Q13485 (parent)
chain: B1 chain
partner: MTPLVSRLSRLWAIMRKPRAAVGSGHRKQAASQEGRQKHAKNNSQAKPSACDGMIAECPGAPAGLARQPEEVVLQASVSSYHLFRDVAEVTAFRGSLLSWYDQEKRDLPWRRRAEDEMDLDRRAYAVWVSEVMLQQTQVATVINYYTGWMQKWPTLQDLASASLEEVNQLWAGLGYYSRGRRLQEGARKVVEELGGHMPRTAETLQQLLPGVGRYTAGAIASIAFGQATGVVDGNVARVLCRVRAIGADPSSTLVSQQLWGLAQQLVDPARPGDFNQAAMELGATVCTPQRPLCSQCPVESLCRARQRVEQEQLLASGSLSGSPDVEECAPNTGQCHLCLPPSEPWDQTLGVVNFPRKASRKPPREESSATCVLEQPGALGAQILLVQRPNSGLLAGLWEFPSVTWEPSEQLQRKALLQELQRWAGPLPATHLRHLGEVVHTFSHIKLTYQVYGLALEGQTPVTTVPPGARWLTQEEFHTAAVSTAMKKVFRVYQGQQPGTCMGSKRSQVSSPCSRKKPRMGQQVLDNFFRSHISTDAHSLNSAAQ

Variants of: B1
Settings: with men1_human MEN1, O00255

R361H was tested. Which “effect of a mutation on the interaction” value did it give?
Its value is “with no effect”.

Variants of: B2
Settings: with mertk_human MERTK

With D351H as the variant, how does the “effect of a mutation on the interaction” value read?
The value was “with no effect”.

Variants of: B2
Settings: with mertk_human MERTK
Remark: another data set of the same source

With G386D as the variant, how does the “effect of a mutation on the interaction” value read?
Its value is “with no effect”.

Variants of: B2
Settings: with mertk_human MERTK
Remark: another data set of the same source

With R361C as the variant, how does the “effect of a mutation on the interaction” value read?
Its value is “with no effect”.

Variants of: B2
Settings: with mertk_human MERTK
Remark: another data set of the same source

For R361H, which “effect of a mutation on the interaction” value is on record?
The value was “with no effect”.

Variants of: B3
Settings: with mre11_human MRE11, P49959

With D351H as the variant, how does the “effect of a mutation on the interaction” value read?
The value was “with no effect”.

Variants of: B3
Settings: with mre11_human MRE11, P49959
Remark: another data set of the same source

How did the “effect of a mutation on the interaction” value turn out when G386D was run?
Its value is “with no effect”.

Variants of: B3
Settings: with mre11_human MRE11, P49959
Remark: another data set of the same source

How did the “effect of a mutation on the interaction” value turn out when R361C was run?
Its value is “with no effect”.

Variants of: B3
Settings: with mre11_human MRE11, P49959
Remark: another data set of the same source

Which “effect of a mutation on the interaction” value does the source give for R361H here?
The value was “with no effect”.

Variants of: B4
Settings: with mutyh_human MUTYH

For D351H, which “effect of a mutation on the interaction” value is on record?
Its value is “with no effect”.

Variants of: B4
Settings: with mutyh_human MUTYH
Remark: another data set of the same source

How did the “effect of a mutation on the interaction” value turn out when G386D was run?
Its value is “with no effect”.

Variants of: B4
Settings: with mutyh_human MUTYH
Remark: another data set of the same source

For R361C, which “effect of a mutation on the interaction” value is on record?
Its value is “with no effect”.
